Consider three molecules from patent US20170152308A1 (Biogen, published 2017).

Like-named read-outs stand apart in the source and are kept apart here. No end group written: not given here.

The target of assay [1] is T1, His-huTDP-43 domain I (amino acid residues 2-106) (human).
T1 construct: Amino terminal His-tagged fragment, E. coli; also called N-terminal domain
T1 chain: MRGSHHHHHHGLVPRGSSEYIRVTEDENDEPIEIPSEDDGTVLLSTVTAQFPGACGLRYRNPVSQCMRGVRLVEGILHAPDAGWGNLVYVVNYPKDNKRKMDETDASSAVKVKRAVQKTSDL
Briefly: direct ELISA, His-tagged TDP-43 fragments coated at 6.6 ug/ml, OD 450. As for the experimental part: (§1) Non-specific binding sites were blocked for 1 hr. at room temperature with PBST containing 2% BSA (Sigma, Buchs, Switzerland). Antibodies were incubated 1 hr. at room temperature. Binding was determined using either a donkey anti-human IgGγ-specific antibody conjugated with HRP (Jackson ImmunoResearch, USA) or a goat-anti mouse IgG (H+L)-specific secondary antibody conjugated with HRP (Jackson ImmunoResearch, USA)., followed by measurement of HRP activity in a standard colorimetric assay.
(In general: ELISA stands for enzyme-linked immunosorbent assay.)

Assay [2] concerns the target T2, His-huTDP-43 domain IV (amino acid residues 258-414) (human, UniProt Q13148 258-414).
T2 construct: Amino terminal His-tagged fragment, E. coli, solubilized in 8 M urea; also called Glycine-rich domain
Described as above. As for the experimental part: as §1

Assay [3] deals with T3, His-huTDP-43 domain III (amino acid residues 183-273) (human).
T3 construct: Amino terminal His-tagged fragment, E. coli
T3 chain: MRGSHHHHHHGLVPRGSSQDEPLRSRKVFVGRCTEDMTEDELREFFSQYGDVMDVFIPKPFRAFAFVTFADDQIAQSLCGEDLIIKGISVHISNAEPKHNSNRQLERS
The description is as above. As for the experimental part:
as §1

In assay [4] the target is T4, recombinant full-length His-tagged human TDP-43 (2-414) (human, UniProt Q13148 2-414).
T4 construct: Amino terminal His tag, made in E. coli, purified in 8 M urea; also called full length TDP-43; full-length TDP-43
Put plainly: direct ELISA, coated antigen. In outline: (§2)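 Plates coated overnight at 4° C with full-length TDP-43 at 5 μg/ml in carbonate buffer pH 9.6, with E. coli extract and BSA coated alongside. After blocking with 2% BSA, antibodies incubated 1 hr at room temperature and detected by HRP anti-human IgGγ colorimetric read-out. EC₅₀ from non-linear regression.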

Assay [5] addresses T5, 6xHis-SUMO-TDP-43 (220-414) (human, UniProt Q13148 220-414).
T5 construct: Captured on the plate by an anti-6xHis antibody; also called 6xHis/SUMO tagged truncated TDP-43; not shown: N-terminal 6xHis and SUMO tags from a modified pET19-b vector
Put plainly: capture ELISA, antigen held by anti-6xHis antibody. In outline:
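Anti-6×His antibody captured 6×His-SUMO-TDP-43 (1.7 μM, 1 hr RT) in PBS with 1% BSA, 300 mM arginine and 0.1% PEG 5000, pH 7.5, avoiding direct adsorption. Three-fold antibody titrations were incubated 1 hr RT and detected with HRP anti-human IgG Fc colorimetrically. EC₅₀ from a four-parameter logistic fit.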

Assay [6] has as its target T6, His-huTDP-43 domain II (amino acid residues 99-204) (human).
T6 construct: Amino terminal His-tagged fragment, E. coli
T6 chain: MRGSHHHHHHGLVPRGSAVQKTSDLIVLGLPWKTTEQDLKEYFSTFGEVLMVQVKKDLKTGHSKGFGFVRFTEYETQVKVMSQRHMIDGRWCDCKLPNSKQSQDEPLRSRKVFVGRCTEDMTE
Put plainly: direct ELISA, coated antigen; direct ELISA, domain coated at 6.6 ug/ml (Example 1, FIG. 2F). How it is done:
as §1
(§3) The polypeptides were coated onto ELISA plates at equal coating concentration of 6.6 μg/ml (recombinant TDP-43 and TDP-43 fragments) or 3.3 μg/ml (synthetic peptides). Binding of the human-derived antibodies was determined by direct ELISA.

Assay [7] concerns the target T4, recombinant full-length His-tagged …. Briefly: direct ELISA, coated antigen. In outline:
as §2
This is another data set of the same source.

The target in assay [8] is T6, His-huTDP-43 domain II (amino acid …). Put plainly: direct ELISA, His-tagged TDP-43 fragments coated at 6.6 ug/ml, OD 450. How it is done:
as §1

Assay [9] deals with T1, His-huTDP-43 domain I (amino acid …). Briefly: direct ELISA, coated antigen; direct ELISA, domain coated at 6.6 ug/ml (Example 1, FIG. 2H). As for the experimental part:
as §1, §3

Assay [10] deals with T7, TDP-43 C terminal fragment 258-319 (human, UniProt Q13148 258-319).
T7 construct: Recombinant fragment
Put plainly: direct ELISA, coated fragments.

The target of assay [11] is T8, TDP-43 C terminal fragment 340-414 (human, UniProt Q13148 340-414).
T8 construct: Recombinant fragment
Briefly: direct ELISA, coated fragments.

Another assay has as its target T9, BSA (bovine, UniProt P02769).
T9 construct: control coating in the EC50 ELISA; also called bovine serum albumin (Sigma, Buchs, Switzerland)
Briefly: direct ELISA, BSA coated at 5 ug/ml as control, OD 450. How it is done:
To determine the half maximal effective concentration (EC₅₀) of the human-derived TDP-43-specific antibodies for human TDP-43 and to evaluate target-specificity, 96 well microplates (Corning) were coated with recombinant full length TDP-43 (Biogen Idec, USA), Escherichia coli extract and BSA (Sigma, Buchs, Switzerland), diluted to a concentration of 5 μg/ml in carbonate ELISA coating buffer (pH 9.6) overnight at 4° C. […] Non-specific binding sites were blocked for 1 hr. at room temperature with PBS containing 2% BSA (Sigma, Buchs, Switzerland). Human TDP-43-specific antibodies were diluted to the indicated concentrations and incubated 1 hr. at room temperature. Binding was determined using a donkey anti-human IgGγ-specific secondary antibody conjugated with HRP (Jackson ImmunoResearch, USA), followed by measurement of HRP activity in a standard colorimetric assay. EC₅₀ values were estimated by a non-linear regression using GraphPad Prism software (San Diego, USA).
The half maximal effective concentration (EC₅₀) of the human-derived TDP-43-specific antibodies for human TDP-43 and their target target-specificity was determined substantially as described in Example 2 above. […]

The target in assay [12] is T1, His-huTDP-43 domain I (amino acid …). Briefly: direct ELISA, TDP-43 fragments coated at 6.6 ug/ml, OD 450. As for the experimental part: as §1
The target in assay [13] is T10, synthetic biotinylated peptide TDP-43 316-353 (human, biotinylated (site not stated)).
T10 construct: On streptavidin-coated plates
T10 peptide: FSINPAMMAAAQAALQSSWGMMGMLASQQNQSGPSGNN
Briefly: direct ELISA, biotinylated peptide on streptavidin plate.

The target in assay [14] is T11, synthetic biotinylated peptide TDP-43 316-333 (human, also: biotinylated (site not given here)).
T11 construct: On streptavidin-coated plates
T11 peptide: FSINPAMMAAAQAALQSS
Described as above.

Assay [15] concerns the target T12, synthetic biotinylated peptide TDP-43 316-343 (human, biotinylated (site not stated)).
T12 construct: On streptavidin-coated plates
T12 peptide: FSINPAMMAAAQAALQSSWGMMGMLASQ
The assay is described as above.

Assay [16] deals with T13, mutant TDP-43 domain IV (TDP-43 258-414 AMM321GGG) (human, UniProt Q13148 258-414).
T13 construct: Recombinant
T13 chain: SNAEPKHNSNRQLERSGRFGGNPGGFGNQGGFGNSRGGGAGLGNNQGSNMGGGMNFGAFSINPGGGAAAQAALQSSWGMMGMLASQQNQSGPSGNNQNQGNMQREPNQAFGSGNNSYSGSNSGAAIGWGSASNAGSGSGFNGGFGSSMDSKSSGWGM
Briefly: direct ELISA, coated antigen.

T9 sequence (P02769 25-607 limits assumed): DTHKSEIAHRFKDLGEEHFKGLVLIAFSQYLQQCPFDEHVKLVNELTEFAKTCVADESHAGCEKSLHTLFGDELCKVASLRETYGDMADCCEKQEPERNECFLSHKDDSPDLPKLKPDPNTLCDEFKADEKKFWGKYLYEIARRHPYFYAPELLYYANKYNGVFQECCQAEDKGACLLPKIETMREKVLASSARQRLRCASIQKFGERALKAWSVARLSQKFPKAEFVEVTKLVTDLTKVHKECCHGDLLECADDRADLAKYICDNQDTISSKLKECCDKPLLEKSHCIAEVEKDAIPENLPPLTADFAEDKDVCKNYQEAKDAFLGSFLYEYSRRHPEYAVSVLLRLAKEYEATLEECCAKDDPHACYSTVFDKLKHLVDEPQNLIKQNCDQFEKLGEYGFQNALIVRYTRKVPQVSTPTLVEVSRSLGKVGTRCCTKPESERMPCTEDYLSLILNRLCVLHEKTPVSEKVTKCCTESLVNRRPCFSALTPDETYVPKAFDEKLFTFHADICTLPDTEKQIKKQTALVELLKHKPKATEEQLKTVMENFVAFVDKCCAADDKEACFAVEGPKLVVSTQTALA

B1: NI-205.113C4 (antibody, human IgG1, V domains shown)
VH: QVQLVQSGAEVKKPGASVKVSCKASGYTFTNYYMHWVRQAPGQGLEWMGIINPSGGRTSYAQKFQGRASMTRDTSTSTVYMEVISLRSEDTAVYYCARQRPSGYSGYGPSESYGNPTDDAFDVWGQGTTVTVSS
VL: SYVLTQPPSVSVAPGQTARITCGGNNIGSRGVHWYQQRPGQAPVLVVYDDSDRPSGIPERFSGSNSGDTATLTISRVEVGDEADYYCQVWDNSSDHLVVFGGGTKLTVL
notes: Human-derived
B1: the binding result in [1] is “no binding”; in [2] it was “no binding”; in assay [3] it was “no binding”; in assay [5], “no binding”; in [6] it was “binds”. Further, the EC50 in [4] and in assay [7] was 13.2 nM in each case.

B2: NI-205.87E7 (antibody, human IgG1, V domains shown)
VH: EVQLLESGGGLVQPGGSLRLSCAASGFTFSSYAMSWVRQAPGKGLEWVSAISGGGDRTYSADSVKGRFTISRDNSKNTLYLQINSLRVEDTAVYYCAQGGGGEMTAVTMDGTYYGMDVWGQGTTVTVSS
VL: QSALTQPRSVSGSPGQSITISCTGTSSNVGTYKFVSWYQQHPGKAPKLMIYDVTKRPSGVPDRFSGSKSGNTASLTISGLQAEDEADYYCCSYAGSYTYVFGSGTKVTVL
notes: Human-derived
Turning to B2, the binding result in [8] was “no binding”; in assay [2] it was “no binding”; in assay [3], “no binding”; in assay [5], “no binding”; in [9] it was “binds”. For the same molecule, the EC50 in assay [4] and in assay [7] was 17.2 nM throughout.

B3: NI-205.41D1 (antibody, human IgG1, V domains shown)
VH: EVQLVESGGGLVQPGGSLRLSCAASGFTFSTYYMSWVRQAPGKGLEWVANIKQDGSEKYYVDSVKGRFTISRDNARNSLYLQMHSLRAEDTAVYYCASPPGWWGQGTLVTVSS
VL: DIVMTQTPLSLSVTPGQPASISCKSSQSLLHSDGKTYLYWYLQKPGQPPQLLIYEVSNRFSGVPDRFSGSGSGTDFTLKISRVEAEDVGVYYCMQSIQLPVTFGGGTKVEIK
notes: Human-derived; also called NI-41D1
In the case of B3, the binding result is “no binding” in assay [10]; “no binding” in assay [11]; “no binding (tested: about 4x10^5 pM)” with BSA; “no binding” in [12]; “binds” in assay [13]; “no binding” in [14]. In addition, the binding result in [15] is “binds”; in assay [16], “no binding”. The same molecule showed a concentration for a half-maximal effect (EC50) in [5] of 0.1 nM.

For orientation: EC50 means the concentration giving half of the maximal effect.
